{
  "source": "paper PMC9786172",
  "about": "(Molecules, 2022)",
  "key": {"[1]": {"conditions": "in vivo; cited from earlier work"}, "in vivo": {"assay": "in vivo", "parameters": "species or system Sprague-Dawley rat", "conditions": "rat", "description": "Chromatographic analysis was performed on a Shimadzu Nexera LC-30AD UPLC system, and mass spectrometric detection was performed on an LCMS-8050 triple quadrupole mass spectrometer (Shimadzu Co., Kyoto, Japan) in the positive ESI and MRM mode. […] The gradient elution of the mobile phase consisting of 0.1% formic acid in water (solvent A) and 0.1% formic acid in acetonitrile (solvent B) was performed at a flow rate of 0.3 mL/min as follows (solvent A:solvent B, v/v): maintained at 19.3 for 0.01 min; ramped from 19.3 to 39.6 for 2.49 min; maintained at 39.6 for 0.01 min; ramped from 39.6 to 90 for 2.99 min; reverted to 19.3 for 0.01 min; and maintained for 1.99 min (total run time: 7.5 min). The ion source parameters were set as follows: nebulizing gas flow, 3 L/min; drying gas flow, 10 L/min; heating gas flow, 10 L/min; interface temperature, 300 °C; desolvation temperature, 250 °C; and heating block temperature, 400 °C. […] Rats underwent surgical implantation of a cannula in the femoral artery under anesthesia, as previously described. The LOC was dissolved in phosphate-buffered saline (pH 5.7). […] A blood sample of approximately 0.3 mL was collected via femoral artery cannulation at various time points (0, 1, 3, 5, 10, 20, 30, 60, 90, 120, 180, 240, 360, 480, and 600 min), then collected in heparin pre-treated microcentrifuge tubes. These blood samples were centrifuged at 4000× g for 10 min to obtain plasma and were frozen at −20 °C until analysis. Non-compartmental analysis was performed using Phoenix WinNonlin ver. 3.1 (Certara USA Inc., Princeton, NJ, USA) to estimate the following pharmacokinetic parameters: AUClast; total area under the plasma concentration versus time curve from time zero to time infinity (AUCinf); Cmax; Tmax; t1/2; and MRTinf. Values were obtained directly from the concentration–time plot. All values are reported as the mean ± standard deviation."}, "[2]": {"assay": "Stability of analytes in rat plasma samples (method validation)", "protocol": "QC samples were prepared using the same process as that used for the calibration standards.\nPlasma samples (100 µL) were mixed with 300 µL of 5% formic acid (in water) and vortexed for 5 min. Then, 500 µL acetonitrile of containing 20 ng/mL IS was added to the resultant mixture and vortexed for 5 min. After centrifugation at 14,500× g for 10 min at 4 °C, 800 µL of the supernatant was collected, dried under vacuum using a SpeedVac (Eyela, Tokyo, Japan), reconstituted with 50 μL of methanol, and injected into the LC-MS/MS system.\nUsing the calibration standard and QC samples, the present LC-MS/MS method was validated in terms of its selectivity, LLOQ, linearity, accuracy, precision, recovery, and stability according to the United States Food and Drug Administration guidelines for bioanalytical method validation [20].\nStability was determined under various analytical handling and storage conditions, such as bench-top, freeze–thaw, post-preparative, and long-term storage, at two QC levels (LQC and HQC)."}},
  "data": [
    {"smiles": "CCNC(=O)[C@@H]1CCCN1C(=O)[C@H](CCCNC(=N)N)NC(=O)[C@H](CC(C)C)NC(=O)[C@@H](CC(C)C)NC(=O)[C@H](Cc1ccc(O)cc1)NC(=O)[C@H](CO)NC(=O)[C@H](Cc1c[nH]c2ccccc12)NC(=O)[C@H](Cc1c[nH]cn1)NC(=O)[C@@H]1CCC(=O)N1", "note": "[Leuprolide, pyroGlu-His-Trp-Ser-Tyr-D-Leu-Leu-Arg-Pro-NHEt, reference compound]", "values": [
      {"measurement": "MRTinf in the intravenous group", "setting": "[1]", "value": 28.1, "unit": "min"},
      {"measurement": "Tmax", "setting": "in vivo; male, Sprague-Dawley, sc", "value": 15, "unit": "min"},
      {"measurement": "half-life", "setting": "in vivo; male, Sprague-Dawley, sc", "value": "38.2 ± 4.3", "unit": "min"},
      {"measurement": "Calculated plasma concentration at 60 min after subcutaneous administration of LOC", "setting": "in vivo", "value": 1.86, "unit": "ng/mL"}
    ]},
    {"smiles": "CCCCCCCC/C=C\\CCCCCCCC(=O)OC[C@H](NC(=O)[C@H](Cc1c[nH]c2ccccc12)NC(=O)[C@H](Cc1c[nH]cn1)NC(=O)[C@@H]1CCC(=O)N1)C(=O)N[C@@H](Cc1ccc(O)cc1)C(=O)N[C@H](CC(C)C)C(=O)N[C@@H](CC(C)C)C(=O)N[C@@H](CCCNC(=N)N)C(=O)N1CCC[C@H]1C(=O)NCC", "note": "[LOC]", "values": [
      {"measurement": "Autosampler stability (percentage of drug remaining), LQC", "setting": "[2]; rat plasma samples, post-preparative, 3 ng/mL, 10 °C for 24 h in the autosampler, LC-MS/MS, mean ± SD, n = 5", "value": "102 ± 9", "unit": "%"},
      {"measurement": "Autosampler stability (percentage of drug remaining), HQC", "setting": "[2]; rat plasma samples, post-preparative, 800 ng/mL, 10 °C for 24 h in the autosampler, LC-MS/MS, mean ± SD, n = 5", "value": "92.7 ±1.2", "unit": "%"},
      {"measurement": "Bench-top stability (percentage of drug remaining), LQC", "setting": "[2]; rat plasma, 3 ng/mL, room temperature for 3 h, LC-MS/MS, mean ± SD, n = 5", "value": "105 ± 7", "unit": "%"},
      {"measurement": "Freeze-thaw stability (percentage of drug remaining), LQC", "setting": "[2]; rat plasma, 3 ng/mL, three freezing and thawing cycles every 12 h at −20 °C, LC-MS/MS, mean ± SD, n = 5", "value": "107 ± 4", "unit": "%"},
      {"measurement": "Long-term stability (percentage of drug remaining), LQC", "setting": "[2]; rat plasma, 3 ng/mL, −20 °C for 30 d, LC-MS/MS, mean ± SD, n = 5", "value": "91.2 ± 4.0", "unit": "%"},
      {"measurement": "Bench-top stability (percentage of drug remaining), HQC", "setting": "[2]; rat plasma, 800 ng/mL, room temperature for 3 h, LC-MS/MS, mean ± SD, n = 5", "value": "97.7± 2.0", "unit": "%"},
      {"measurement": "Freeze-thaw stability (percentage of drug remaining), HQC", "setting": "[2]; rat plasma, 800 ng/mL, three freezing and thawing cycles every 12 h at −20 °C, LC-MS/MS, mean ± SD, n = 5", "value": "107 ± 4", "unit": "%"},
      {"measurement": "Long-term stability (percentage of drug remaining), HQC", "setting": "[2]; rat plasma, 800 ng/mL, −20 °C for 30 d, LC-MS/MS, mean ± SD, n = 5", "value": "93.4 ± 2.6", "unit": "%"},
      {"measurement": "Recovery values after exposure to different stability conditions", "setting": "[2]; rat plasma, 3 and 800 ng/mL, range over bench-top, autosampler, freeze-thaw and long-term conditions", "value": "91.2–107%"},
      {"measurement": "Tmax", "setting": "in vivo; male, Sprague-Dawley, sc", "value": 300, "unit": "min"},
      {"measurement": "half-life", "setting": "in vivo; male, Sprague-Dawley, sc", "value": "172 ± 66", "unit": "min"},
      {"measurement": "level at 1 h", "setting": "in vivo; male, Sprague-Dawley, sc, 0.122 mg/kg", "value": 11.7, "unit": "ng/mL"}
    ]}
  ]
}
